Reference: PMC3625992 (Structure (London, England : 1993), 2012)

Molecular target: T1, helicase and C-terminal regulatory domains of human RIG-I (helicase-CTD; residues 230–925) (human, UniProt O95786 230-925)
T1 sequence (looked up): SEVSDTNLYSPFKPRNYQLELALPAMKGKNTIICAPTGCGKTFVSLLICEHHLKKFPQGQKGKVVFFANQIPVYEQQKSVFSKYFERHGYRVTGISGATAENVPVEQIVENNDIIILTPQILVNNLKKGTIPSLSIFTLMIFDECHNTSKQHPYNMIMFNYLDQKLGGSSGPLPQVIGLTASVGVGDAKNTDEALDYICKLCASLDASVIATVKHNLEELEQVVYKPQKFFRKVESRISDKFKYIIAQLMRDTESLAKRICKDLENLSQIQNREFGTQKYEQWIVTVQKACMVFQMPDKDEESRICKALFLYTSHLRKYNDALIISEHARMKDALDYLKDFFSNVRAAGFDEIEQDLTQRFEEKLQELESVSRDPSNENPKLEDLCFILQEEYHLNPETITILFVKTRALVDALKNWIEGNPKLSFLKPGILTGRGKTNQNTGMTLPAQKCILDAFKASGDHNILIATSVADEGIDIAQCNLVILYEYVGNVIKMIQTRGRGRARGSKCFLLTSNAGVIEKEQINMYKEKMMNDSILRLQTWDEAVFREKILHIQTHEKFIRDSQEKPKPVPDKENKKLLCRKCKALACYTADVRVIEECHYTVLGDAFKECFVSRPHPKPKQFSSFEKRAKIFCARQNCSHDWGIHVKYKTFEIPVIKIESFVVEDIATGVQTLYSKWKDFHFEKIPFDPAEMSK
Test: NMR titration

Kd: 1.66 ± 1.3 µM
B1: second CARD of human RIG-I (CARD2; residues 95–190) (domain or fragment, UniProt O95786 95-190, looked up)
chain: KKIEKLEEYRLLLKRLQPEFKTRIIPTDIISDLSECLINQECEEILQICSTKGMMAGAEKLVECLLRSDKENWPKTLKLALEKERNKFSELWIVEK
